Experimental data published in the supplement of paper PMC10065799, “High-throughput profiling of sequence recognition by tyrosine kinases and SH2 domains using bacterial peptide display” (eLife, 2023).

What follows are sequences tested against SHP2-C SH2 (assay: SH2 binding enrichment of the phosphorylated peptide, bacterial display (enrichment ratio); higher = better substrate or ligand; peptides without Tyr show the background).
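Throughout, for SH2 binding enrichment of the phosphorylated peptide, bacterial display: peptide library displayed on the E. coli surface as eCPX fusions, selected cells deep-sequenced, score is each peptide's frequency after selection divided by its frequency in the input.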
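Throughout, for phosphorylation enrichment, bacterial display: 11-residue human phosphosite peptides and single-mutation variants displayed on the E. coli surface, counted by deep sequencing, each peptide's frequency after selection divided by its frequency in the unselected input library; frequency after pTyr selection over input frequency; kinase dosed for 20-30% of maximal phosphorylation in three min.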

Sequence	SH2 binding enrichment
VHKKGYNKLNQ [ZNF676_Y98_E96K]	0.885
PVGDAYKKKGL [NMNAT1_Y55]	0.673
CLGNQYVNVMN [SLC3A1_Y461_R456C]	1.11
FPCSVYVPDEW [INSR_Y1011]	1.35
IFCIQYNIRAF [MYH4_Y820]	1.07
CASQLYPRHKH [DCTN4_Y263]	0.865
KNKNRYKNILP [PTPN11_Y279]	0.888
ELTSKYRGGGG [HBA1_Y141_V136E]	0.725
LNTFHYAGVSA [POLR2A_Y1109]	1.64
PARLEYCENEK [IRS1_Y46_Y47C]	1.21
YDEYRYRSFIK [CFTR_Y517_V520F]	0.849
CTTIHYNYMCD [TP53_Y234_N239D]	2.32
HRGHLYLAIEY [TEK_Y899_Y897H]	0.654
NKEPRYQEDPP [TJP2_Y479]	0.822
PSQRRYLYYYS [PTEN_Y174_V175L]	1.48
DGQSVYKLTDF [TBK1_Y153]	0.683
TIMTDYNPNYC [ALK_Y1092]	0.654

Sequence	SH2 binding enrichment
MALDIYRASFF [ALK_Y1278_R1275L_YF]	0.768
LSDVIYVILRK [PMP22_Y153_G150D]	1.31
ALCHFYKLNII [ETV6_Y402_R399C_YF]	1.06
REDIFYTSKLW [AKR1C2_Y81]	0.838
LGMSQYFRLFN [CPT2_Y217_D213G]	3.46
MPQNEYIELHC [NSA2_Y6_R11C]	0.782
EKEKKYMLPLD [DNM2_Y563]	0.841
FTFDPYSEEEP [IL2RB_Y387_D391E_YF]	0.971
PIQLFYTRRNT [GHR_Y86]	0.594
QMVDMYASSFM [AVPR2_Y124_G122D_YF]	0.575
DAVAVYHGKIS [SH2D1A_Y7]	0.82
RFLRGYQQDAF [HLA-A_Y137_R138Q_YF]	0.581
FLNSIYKSRDE [ROS1_Y2227]	0.954
ALPVFYAATIA [SLC20A2_Y187]	0.889
FPDFVYKRIKA [DPYSL2_Y479]	0.622
ETKKQYNSFTF [TMED3_Y85_D86N_YF]	0.636

The sequences below were run against Grb2 SH2 (UniProt P62993) in the same assay as above.
Sequence of Grb2 SH2 (P62993 whole entry, looked up): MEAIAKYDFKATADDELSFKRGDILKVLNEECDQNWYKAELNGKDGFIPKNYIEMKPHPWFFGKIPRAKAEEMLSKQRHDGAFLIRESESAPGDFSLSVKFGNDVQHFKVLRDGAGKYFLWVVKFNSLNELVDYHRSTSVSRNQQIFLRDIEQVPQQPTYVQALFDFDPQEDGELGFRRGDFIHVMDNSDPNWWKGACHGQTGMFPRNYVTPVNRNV

Sequence	SH2 binding enrichment
VHKKGYNKLNQ [ZNF676_Y98_E96K]	1.08
PVGDAYKKKGL [NMNAT1_Y55]	0.831
CLGNQYVNVMN [SLC3A1_Y461_R456C]	18.2
FPCSVYVPDEW [INSR_Y1011]	0.858
IFCIQYNIRAF [MYH4_Y820]	1.08
CASQLYPRHKH [DCTN4_Y263]	0.975
KNKNRYKNILP [PTPN11_Y279]	1.05
ELTSKYRGGGG [HBA1_Y141_V136E]	0.939
LNTFHYAGVSA [POLR2A_Y1109]	0.9
PARLEYCENEK [IRS1_Y46_Y47C]	0.909
YDEYRYRSFIK [CFTR_Y517_V520F]	0.901
CTTIHYNYMCD [TP53_Y234_N239D]	1.16
HRGHLYLAIEY [TEK_Y899_Y897H]	1.36
NKEPRYQEDPP [TJP2_Y479]	1.43
PSQRRYLYYYS [PTEN_Y174_V175L]	0.84
DGQSVYKLTDF [TBK1_Y153]	0.678
TIMTDYNPNYC [ALK_Y1092]	1.11

Sequence	SH2 binding enrichment
MALDIYRASFF [ALK_Y1278_R1275L_YF]	0.803
LSDVIYVILRK [PMP22_Y153_G150D]	1.17
ALCHFYKLNII [ETV6_Y402_R399C_YF]	1.12
REDIFYTSKLW [AKR1C2_Y81]	1.04
LGMSQYFRLFN [CPT2_Y217_D213G]	1.06
MPQNEYIELHC [NSA2_Y6_R11C]	1.06
EKEKKYMLPLD [DNM2_Y563]	0.902
FTFDPYSEEEP [IL2RB_Y387_D391E_YF]	1.04
PIQLFYTRRNT [GHR_Y86]	0.74
QMVDMYASSFM [AVPR2_Y124_G122D_YF]	1.07
DAVAVYHGKIS [SH2D1A_Y7]	0.717
RFLRGYQQDAF [HLA-A_Y137_R138Q_YF]	0.58
FLNSIYKSRDE [ROS1_Y2227]	1
ALPVFYAATIA [SLC20A2_Y187]	0.793
FPDFVYKRIKA [DPYSL2_Y479]	0.79
ETKKQYNSFTF [TMED3_Y85_D86N_YF]	0.65

The sequences below were run against c-Src SH2 in the same assay as above.

Sequence	SH2 binding enrichment
VHKKGYNKLNQ [ZNF676_Y98_E96K]	0.962
PVGDAYKKKGL [NMNAT1_Y55]	0.626
CLGNQYVNVMN [SLC3A1_Y461_R456C]	2.27
FPCSVYVPDEW [INSR_Y1011]	1.13
IFCIQYNIRAF [MYH4_Y820]	0.685
CASQLYPRHKH [DCTN4_Y263]	0.916
KNKNRYKNILP [PTPN11_Y279]	0.637
ELTSKYRGGGG [HBA1_Y141_V136E]	0.469
LNTFHYAGVSA [POLR2A_Y1109]	1.32
PARLEYCENEK [IRS1_Y46_Y47C]	1.26
YDEYRYRSFIK [CFTR_Y517_V520F]	1.21
CTTIHYNYMCD [TP53_Y234_N239D]	8.55
HRGHLYLAIEY [TEK_Y899_Y897H]	0.341
NKEPRYQEDPP [TJP2_Y479]	0.78
PSQRRYLYYYS [PTEN_Y174_V175L]	1.06
DGQSVYKLTDF [TBK1_Y153]	0.513
TIMTDYNPNYC [ALK_Y1092]	0.663

Sequence	SH2 binding enrichment
MALDIYRASFF [ALK_Y1278_R1275L_YF]	0.518
LSDVIYVILRK [PMP22_Y153_G150D]	0.58
ALCHFYKLNII [ETV6_Y402_R399C_YF]	0.915
REDIFYTSKLW [AKR1C2_Y81]	0.598
LGMSQYFRLFN [CPT2_Y217_D213G]	0.805
MPQNEYIELHC [NSA2_Y6_R11C]	0.683
EKEKKYMLPLD [DNM2_Y563]	0.534
FTFDPYSEEEP [IL2RB_Y387_D391E_YF]	0.654
PIQLFYTRRNT [GHR_Y86]	0.492
QMVDMYASSFM [AVPR2_Y124_G122D_YF]	0.707
DAVAVYHGKIS [SH2D1A_Y7]	0.406
RFLRGYQQDAF [HLA-A_Y137_R138Q_YF]	0.374
FLNSIYKSRDE [ROS1_Y2227]	0.612
ALPVFYAATIA [SLC20A2_Y187]	0.669
FPDFVYKRIKA [DPYSL2_Y479]	0.41
ETKKQYNSFTF [TMED3_Y85_D86N_YF]	0.411

The sequences below were run on c-Src (assay: phosphorylation enrichment, bacterial display (enrichment ratio); higher = better substrate or ligand; peptides without Tyr show the background).

Sequence	phosphorylation enrichment
VHKKGYNKLNQ [ZNF676_Y98_E96K]	0.488
PVGDAYKKKGL [NMNAT1_Y55]	0.493
CLGNQYVNVMN [SLC3A1_Y461_R456C]	0.437
FPCSVYVPDEW [INSR_Y1011]	1.8
IFCIQYNIRAF [MYH4_Y820]	0.599
CASQLYPRHKH [DCTN4_Y263]	0.405
KNKNRYKNILP [PTPN11_Y279]	0.941
ELTSKYRGGGG [HBA1_Y141_V136E]	0.434
LNTFHYAGVSA [POLR2A_Y1109]	0.464
PARLEYCENEK [IRS1_Y46_Y47C]	1.05
YDEYRYRSFIK [CFTR_Y517_V520F]	1.62
CTTIHYNYMCD [TP53_Y234_N239D]	0.422
HRGHLYLAIEY [TEK_Y899_Y897H]	0.344
NKEPRYQEDPP [TJP2_Y479]	0.461
PSQRRYLYYYS [PTEN_Y174_V175L]	0.64
DGQSVYKLTDF [TBK1_Y153]	3.06
TIMTDYNPNYC [ALK_Y1092]	0.552

Sequence	phosphorylation enrichment
MALDIYRASFF [ALK_Y1278_R1275L_YF]	1.05
LSDVIYVILRK [PMP22_Y153_G150D]	0.38
ALCHFYKLNII [ETV6_Y402_R399C_YF]	0.581
REDIFYTSKLW [AKR1C2_Y81]	0.438
LGMSQYFRLFN [CPT2_Y217_D213G]	0.381
MPQNEYIELHC [NSA2_Y6_R11C]	0.625
EKEKKYMLPLD [DNM2_Y563]	0.452
FTFDPYSEEEP [IL2RB_Y387_D391E_YF]	0.907
PIQLFYTRRNT [GHR_Y86]	0.919
QMVDMYASSFM [AVPR2_Y124_G122D_YF]	2.34
DAVAVYHGKIS [SH2D1A_Y7]	0.348
RFLRGYQQDAF [HLA-A_Y137_R138Q_YF]	0.603
FLNSIYKSRDE [ROS1_Y2227]	0.481
ALPVFYAATIA [SLC20A2_Y187]	0.598
FPDFVYKRIKA [DPYSL2_Y479]	0.344
ETKKQYNSFTF [TMED3_Y85_D86N_YF]	0.399
